Experimental data taken from PMC11449360.

Target: Recombinant full-length MMTV Gag containing hexa-histidine tag at the C-terminus (Pr77^Gag) (mouse mammary tumor virus (MMTV))
Experiment: dynamic light scattering; purified Pr77^Gag-His6 alone in storage buffer (50 mM Tris-HCl pH 8.0, 1 M NaCl); the hydrodynamic radius (about 6.00 nm) from volume and number distributions is read as the oligomer's size

## Recombinant full-length MMTV Gag containing hexa-histidine tag at the C-terminus (Pr77^Gag) (natural protein)
  stoichiometry N: 3
